# Patent publication US7727960B2, “C5a receptor antagonists” (Jerini AG, priority 2003, dated 2010)
# Like-named read-outs stand apart in the source and are kept apart here. Positions of bridges follow the written chain, without caps; N, C: chain ends. Non-standard residues stand in square brackets, D forms with d. Residues, ends and D or L forms follow the SMILES beside them. No end group written: not given here. Phenylbutanoyl = Phenylbutanoyl residue at the C-terminus; NEtPhe = CCN[C@@H](Cc1ccccc1)C(=O)O; NMeF = CN[C@@H](Cc1ccccc1)C(=O)O; Cha = N[C@@H](CC1CCCCC1)C(=O)O; dCha = N[C@H](CC1CCCCC1)C(=O)O; AllylGly = C=CC[C@H](N)C(=O)O; Nle = CCCC[C@H](N)C(=O)O; Orn = NCCC[C@H](N)C(=O)O; dNMeA = CN[C@H](C)C(=O)O
# T1: C5aR (Homo sapiens, UniProt P21730)
# T1 construct: derived from measurements with isolated membranes from polymorphonuclear neutrophilic granulocytes (PMN membranes); host or cells: isolated membranes of polymorphonuclear neutrophilic granulocytes (PMN membranes)
# T1 sequence (P21730 1-350): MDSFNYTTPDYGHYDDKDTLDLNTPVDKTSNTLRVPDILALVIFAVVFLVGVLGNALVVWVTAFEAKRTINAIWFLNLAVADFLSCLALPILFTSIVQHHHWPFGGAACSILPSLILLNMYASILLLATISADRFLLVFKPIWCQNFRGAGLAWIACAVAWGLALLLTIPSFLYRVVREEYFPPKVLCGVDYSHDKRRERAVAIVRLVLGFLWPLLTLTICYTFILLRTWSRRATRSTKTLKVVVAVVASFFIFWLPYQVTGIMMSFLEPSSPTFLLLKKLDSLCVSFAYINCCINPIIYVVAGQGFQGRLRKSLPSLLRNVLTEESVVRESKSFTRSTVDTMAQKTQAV
# T2: C5a receptor (Homo sapiens, UniProt P21730)
# T2 sequence (P21730 1-350): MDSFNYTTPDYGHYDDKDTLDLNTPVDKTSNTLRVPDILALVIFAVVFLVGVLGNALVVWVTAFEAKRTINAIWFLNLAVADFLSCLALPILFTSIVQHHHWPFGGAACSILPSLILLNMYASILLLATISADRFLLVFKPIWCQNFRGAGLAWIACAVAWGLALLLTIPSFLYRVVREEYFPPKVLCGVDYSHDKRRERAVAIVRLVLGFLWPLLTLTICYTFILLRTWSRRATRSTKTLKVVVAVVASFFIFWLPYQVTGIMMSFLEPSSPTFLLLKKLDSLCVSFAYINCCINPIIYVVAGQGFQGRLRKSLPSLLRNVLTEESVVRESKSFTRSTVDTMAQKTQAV
# T3: human C5aR (CD88) (human, UniProt P21730 1-350)
# T3 sequence (looked up): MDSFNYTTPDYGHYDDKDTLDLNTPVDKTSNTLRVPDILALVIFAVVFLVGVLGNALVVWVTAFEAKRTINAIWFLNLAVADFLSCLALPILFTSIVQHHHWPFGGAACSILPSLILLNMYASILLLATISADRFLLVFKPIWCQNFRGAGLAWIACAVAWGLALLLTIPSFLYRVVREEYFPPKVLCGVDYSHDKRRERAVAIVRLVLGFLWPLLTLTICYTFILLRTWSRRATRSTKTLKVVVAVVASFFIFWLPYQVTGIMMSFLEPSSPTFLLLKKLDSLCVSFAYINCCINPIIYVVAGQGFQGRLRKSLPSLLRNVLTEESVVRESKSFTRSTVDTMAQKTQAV
# Key:
# [1] = molecular target: T1, C5aR; conditions: PMN membranes, cited from earlier work
# [2] = molecular target: T1, C5aR; assay: Prior-art antagonistic activity (WO 03/033528); conditions: WO 03/033528 values
# Excerpt: In WO 03/033528 single substitutions of various amino acids in the molecule Ac-Phe[Orn-Pro-cha-Trp-Arg](compound 1) [SEQ ID NO: 6] are reported. A decrease of the affinity to the C5aR and a decrease in antagonistic potency is described for the substitution of the Arg with homoarginine (compound 44), citrulline (compound 45), lysine ([…]), or canavanine (compound 47). […] No IC50 value is reported for canavanine. […] Apart from the effects of charged arginine substitutions (homoarginine and lysine), in particular the strong decrease in binding strength upon exchange of the charged arginine (0.45 μM) by the uncharged citrulline (6 μM) is remarkable. The antagonistic activity is reduced even more (Arg: 0.028 μM, Cit: 0.690 μM). […] This also reflects that the size of the side chain itself is not sufficient as a criterium for predicting the activity. WO 03/033528 sets forth that the arginine (1) substitution to citrulline (45) results in a compound with allegedly remarkable antagonistic properties (p. 44, line 28ff). However, the cut off rate for what is remarkable, is chosen arbitrarily and the significant 24-fold drop in activity underlines the in the prior art well known importance of the C-terminal arginine in the peptidic C5aR antagonists. […]
# [3] = molecular target: T2, C5a receptor; conditions: read-out: IC50 as a measure for affinity (WO 03/033528); cited from earlier work
# [4] = tested on: human PMNs; conditions: myeloperoxidase release, read-out: IC50 antagonistic activity (WO 99/00406); cited from earlier work
# [5] = molecular target: T3, human C5aR (CD88); assay: cell-based or functional assay
# [6] = molecular target: T3, human C5aR (CD88); assay: cell-based or functional assay; remark: listed apart in the source
# [7] = molecular target: T3, human C5aR (CD88); assay: cell-based or functional assay; remark: listed apart in the source
# [8] = molecular target: T3, human C5aR (CD88); assay: cell-based or functional assay; remark: listed apart in the source
# [9] = read-out: IC50 for the binding (WO 90/09162)
# [10] = read-out: IC50 binding to C5aR (WO 92/12168)
Molecule,"EC50, agonistic activity, enzyme release assay [5] [nM]","IC50 activity group, enzyme release assay [7] [nM]",further results
CC(=O)N[C@@H](Cc1ccccc1)C(=O)N[C@@H](CCCCN)C(=O)N[C@@H](C)C(=O)N[C@@H](CC1CCCCC1)C(=O)N[C@@H](C)C(=O)N[C@@H](CC(C)C)C(=O)N[C@H](C)C(=O)N[C@@H](Cc1ccc(O)cc1)C(=O)O [Ac-Phe-Lys-Ala-Cha-Ala-Leu-ala-Tyr-OH] (Ac-FKA[Cha]AL[dA]Y-OH),–,–,"IC50 [1, 9]: 170 nM"
"CC(=O)N[C@@H](Cc1ccccc1)C(=O)N[C@H]1CCCNC(=O)[C@H](CCCNC(N)=O)NC(=O)[C@H](Cc2c[nH]c3ccccc23)NC(=O)[C@@H](CC2CCCCC2)NC(=O)[C@@H]2CCCN2C1=O [Compound 10, Ac-Phe-[Orn-Pro-cha-Trp-Cit]]",–,–,drop in activity on substitution of arginine by citrulline [2]: 24 fold
(N-Ethyl)Phe-Lys-Ala-Cha-Ala-Leu-N-Methyl(D)ala-Arg-OH ([NEtPhe]KA[Cha]AL[dNMeA]R-OH; N-terminus assumed; SMILES CCN[C@@H](Cc1ccccc1)C(=O)N[C@@H](CCCCN)C(=O)N[C@@H](C)C(=O)N[C@@H](CC1CCCCC1)C(=O)N[C@@H](C)C(=O)N[C@@H](CC(C)C)C(=O)N(C)[C@H](C)C(=O)N[C@@H](CCCNC(=N)N)C(=O)O),–,–,"IC50 [1, 9]: 11 nM"
(N-Methyl)Phe-Lys-Pro-cha-Phe-Phenylbutanoyl ([NMeF]KP[dCha]F-Phenylbutanoyl),–,–,"IC50 [1, 10]: 2600 nM"
(N-Methyl)Phe-Lys-Pro-cha-ψ{CH2- N(CH2CH2C6H5)}-Arg-OH,–,–,"IC50 [1, 10]: 360 nM"
Ac-Phe-Lys-Ala-Cha-Ala-Leu-N-Methyl(D)ala-Arg-OH (Ac-FKA[Cha]AL[dNMeA]R-OH; SMILES CC(=O)N[C@@H](Cc1ccccc1)C(=O)N[C@@H](CCCCN)C(=O)N[C@@H](C)C(=O)N[C@@H](CC1CCCCC1)C(=O)N[C@@H](C)C(=O)N[C@@H](CC(C)C)C(=O)N(C)[C@H](C)C(=O)N[C@@H](CCCNC(=N)N)C(=O)O),–,–,"IC50 [1, 9]: 12 nM"
Ac-Phe[Orn-Pro-cha-Trp-Arg] with the Arg substituted with homoarginine (WO 03/033528) [WO 03/033528 compound 44],–,–,IC50 [3]: 1360 nM
Ac-Phe[Orn-Pro-cha-Trp-Arg] with the Arg substituted with lysine (WO 03/033528); number 47 also printed for canavanine [WO 03/033528 compound 47],–,–,IC50 [3]: 24000 nM
"Me-Phe-Lys-Pro-cha-Trp-arg (FKPXWX; N-methyl, D-cha, D-Arg; oligopeptide with antagonistic activity at the C5a receptor)",–,–,IC50 [4]: 85 nM
H-F[Orn]P[dCha]W[Nle] (lactam 2-C; not fully specified; printed as H-Phe-[Orn-Pro-cha-Trp-Nle]) [H-Phe-[Orn-Pro-cha-Trp-Nle]],> 1430,–,–
Ac-A[Orn]P[dCha]WR (lactam 2-C; SMILES CC(=O)N[C@@H](C)C(=O)N[C@H]1CCCNC(=O)[C@H](CCCNC(=N)N)NC(=O)[C@H](Cc2c[nH]c3ccccc23)NC(=O)[C@@H](CC2CCCCC2)NC(=O)[C@@H]2CCCN2C1=O) [Ac-Ala-[Orn-Pro-cha-Trp-Arg]],–,> 2000,"IC50, functional assay [6]: > 30000 nM"
FXPXWX (not fully specified; Ac-; Orn2; cha4 (D); Cit6; cyclic [2-6]) [Ac-Phe-[Orn-Pro-cha-Trp-Cit]],–,≤ 2000,"IC50 activity group, enzyme release assay (Example 30) [8]: ≤ 2000 nM"
Ac-F[Orn]P[dCha]W[Nle] (lactam (positions not given here); not fully specified (bridges); printed as Ac-Phe-[Orn-Pro-cha-Trp-Nle]) [Ac-Phe-[Orn-Pro-cha-Trp-Nle]],> 1430,≤ 50,–
{Ph‑CH2‑CH2‑CO}-[Orn]P[dCha]W[Nle] (lactam 1-C) [Ph-CH2-CH2-CO-[Orn-Pro-cha-Trp-Nle]],> 1430,–,–
Ac-F[Orn]P[dCha]W[AllylGly] (lactam (positions not given here); not fully specified (bridges); printed as Ac-Phe-[Orn-Pro-cha-Trp-Eaf]) [Ac-Phe-[Orn-Pro-cha-Trp-Eaf]],> 1430,≤ 10,–
Ac-KF[Orn]P[dCha]W[Nle] (lactam 3-C; SMILES CCCC[C@@H]1NC(=O)[C@H](Cc2c[nH]c3ccccc23)NC(=O)[C@@H](CC2CCCCC2)NC(=O)[C@@H]2CCCN2C(=O)[C@@H](NC(=O)[C@H](Cc2ccccc2)NC(=O)[C@H](CCCCN)NC(C)=O)CCCNC1=O) [Ac-Lys-Phe-[Orn-Pro-cha-Trp-Nle]],> 1430,≤ 50,–
Ac-F[Orn]P[dCha]WF (lactam (positions not given here); not fully specified (bridges); printed as Ac-Phe-[Orn-Pro-cha-Trp-Phe]) [Ac-Phe-[Orn-Pro-cha-Trp-Phe]],> 1430,≤ 50,"IC50, enzyme release assay [6]: 23 nM"
{HOCH2(CHOH)4‑C═N‑O‑CH2‑CO}-F[Orn]P[dCha]W[Nle] (lactam 2-C) [HOCH2(CHOH)4-C═N-O-CH2-CO-Phe-[Orn-Pro-cha-Trp-Nle]],> 1430,≤ 200,–
